We go through one molecule from patent US20050203007A1 (REGENTS OF THE UNIVERSITY OF MICHIGAN, published 2005).

Test [1] concerns the target T1, secreted, soluble furin (human, UniProt P09958 108-715, limits assumed).
T1 construct: Secreted, soluble construct; also called human furin
Kind of test: estimated from koff. How it is done:
(§1) In some aspects of the present invention, biological application of the eglin c variants of the present invention as inhibitors of processing in vivo depends upon the rate of binding to target enzymes, where it is critical. Therefore, the rate of action of eglin variants with Kex2 and furin was examined by incubating 5×10⁻¹⁰ M enzyme with inhibitor at molar ratios of inhibitor to enzyme ranging from 10 to 80. […] The relationship between kobs and inhibitor concentration was linear. The values of kₒₙ were determined from the slope of such curves, and dissociation rate constants (koff) were calculated (koff=kₒₙ/Kₐ). For R4R1-eglin, koff was calculated to be 2×10⁻⁴s⁻¹ for Kex2, and 3×10⁻⁴s⁻¹ for furin. […] Similarly, the t_{1/2} of the complex of M4R1-eglin with Kex2 was estimated to be 3 h. For complex of R4K1-eglin with furin, koff was calculated to be 2×10⁻⁴s⁻¹ implying that the koff and t_{1/2} for this complex are similar to those for the complex of R4R1-eglin with furin.

The target in test [2] is T2, secreted, soluble Kex2 (Saccharomyces cerevisiae, UniProt P13134 114-613, limits assumed).
T2 construct: Secreted, soluble construct; also called kexin
T2 sequence (looked up): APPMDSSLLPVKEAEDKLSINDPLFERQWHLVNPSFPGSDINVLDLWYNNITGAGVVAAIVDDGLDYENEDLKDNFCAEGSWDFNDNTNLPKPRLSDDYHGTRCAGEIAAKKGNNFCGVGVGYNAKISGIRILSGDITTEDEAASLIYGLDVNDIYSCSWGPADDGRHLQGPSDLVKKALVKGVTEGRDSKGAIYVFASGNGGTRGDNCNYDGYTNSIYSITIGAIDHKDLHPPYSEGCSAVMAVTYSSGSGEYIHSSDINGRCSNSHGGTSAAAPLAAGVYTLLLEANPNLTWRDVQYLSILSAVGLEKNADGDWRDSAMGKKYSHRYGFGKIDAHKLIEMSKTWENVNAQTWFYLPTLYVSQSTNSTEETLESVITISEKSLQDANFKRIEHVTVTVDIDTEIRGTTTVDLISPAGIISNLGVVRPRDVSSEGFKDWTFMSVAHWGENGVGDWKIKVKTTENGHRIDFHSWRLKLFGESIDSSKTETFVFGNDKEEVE
In words: estimated from koff. As for the experimental part: as §1

The target in test [3] is T3, human PC7 (human, UniProt Q16549 142-667, limits assumed).
T3 sequence (looked up): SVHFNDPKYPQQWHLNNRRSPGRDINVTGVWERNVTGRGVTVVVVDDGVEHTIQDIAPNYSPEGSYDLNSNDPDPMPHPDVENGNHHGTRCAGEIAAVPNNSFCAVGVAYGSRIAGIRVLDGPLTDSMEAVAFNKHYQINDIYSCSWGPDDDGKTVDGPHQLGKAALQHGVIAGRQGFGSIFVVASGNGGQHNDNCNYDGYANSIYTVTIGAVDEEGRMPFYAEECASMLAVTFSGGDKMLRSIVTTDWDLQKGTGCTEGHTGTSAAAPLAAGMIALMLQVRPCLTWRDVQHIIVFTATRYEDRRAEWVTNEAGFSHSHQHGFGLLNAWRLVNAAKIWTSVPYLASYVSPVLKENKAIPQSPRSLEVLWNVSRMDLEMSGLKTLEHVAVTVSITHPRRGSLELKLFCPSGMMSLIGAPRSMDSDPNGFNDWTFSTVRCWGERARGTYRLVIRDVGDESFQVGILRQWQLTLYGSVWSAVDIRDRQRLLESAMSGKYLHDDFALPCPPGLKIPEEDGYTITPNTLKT
In words: enzyme inhibition, purified variant.

Test [4] concerns the target T1, secreted, soluble furin. Kind of test: enzyme inhibition, purified variant.
Test [5] addresses T2, secreted, soluble Kex2. In words: enzyme inhibition, purified variant.
Test [6] deals with T1, secreted, soluble furin. Kind of test: calculated from kon (progress curves) and Ka. How it is done:
as §1

The target of test [7] is T2, secreted, soluble Kex2. Kind of test: calculated from kon (progress curves) and Ka. As for the experimental part:
as §1

The target of test [8] is trypsin. Kind of test: enzyme inhibition; temporary inhibitor of trypsin.
In test [9] the target is T3, human PC7. Kind of test: cell-based or functional assay.
Test [10] has as its target T1, secreted, soluble furin. In words: cell-based or functional assay.
The target in test [11] is T2, secreted, soluble Kex2. Kind of test: cell-based or functional assay.
Test [12] concerns the target T1, secreted, soluble furin. In words: equilibrium enzyme inhibition, fluorogenic substrate.
In test [13] the target is T2, secreted, soluble Kex2. The test is described as above.

T1 sequence (P09958 108-715 limits assumed): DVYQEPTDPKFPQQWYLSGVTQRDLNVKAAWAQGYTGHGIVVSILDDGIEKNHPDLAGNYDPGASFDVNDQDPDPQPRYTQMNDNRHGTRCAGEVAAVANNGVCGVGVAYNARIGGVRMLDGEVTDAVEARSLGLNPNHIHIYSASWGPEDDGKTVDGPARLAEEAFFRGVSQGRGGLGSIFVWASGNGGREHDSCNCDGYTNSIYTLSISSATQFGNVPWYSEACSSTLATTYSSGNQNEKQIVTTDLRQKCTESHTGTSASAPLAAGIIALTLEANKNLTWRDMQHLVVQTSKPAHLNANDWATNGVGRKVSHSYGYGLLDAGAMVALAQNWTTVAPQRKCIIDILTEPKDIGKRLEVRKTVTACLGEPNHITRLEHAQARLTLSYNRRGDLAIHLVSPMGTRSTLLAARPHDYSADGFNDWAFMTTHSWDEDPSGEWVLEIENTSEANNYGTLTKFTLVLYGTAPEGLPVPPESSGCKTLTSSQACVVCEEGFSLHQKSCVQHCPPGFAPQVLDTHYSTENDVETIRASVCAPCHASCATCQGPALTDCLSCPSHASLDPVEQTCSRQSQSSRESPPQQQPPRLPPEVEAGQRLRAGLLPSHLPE
Chain of trypsin (P00760 24-246): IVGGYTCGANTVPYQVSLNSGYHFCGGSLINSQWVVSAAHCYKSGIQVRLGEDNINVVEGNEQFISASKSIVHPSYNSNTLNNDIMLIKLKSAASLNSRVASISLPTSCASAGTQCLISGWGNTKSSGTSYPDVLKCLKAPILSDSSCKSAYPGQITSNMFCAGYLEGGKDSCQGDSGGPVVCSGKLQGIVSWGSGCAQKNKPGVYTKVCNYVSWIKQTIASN

B1: R4R1-eglin (designed binder)
chain: SMGSELKSFPEVVGKTVDQAREYFTLHYPQYDVYFLPEGSRVTRDLRYNRVRVFYNPGTNVVNHVPHVG
notes: N-terminal Met removed; also called Tyr49-R4R1-; D33Y49
Turning to B1, the “half-life (t1/2) of the complex” value in test [1] and in test [2] was around 1 h each time. Moreover, the Ki in [3] was 1.3 nM; in [4] it was 2.5 nM; in test [5] it was 0.91 nM; in test [12] it was 2.5 nM; in [13], 0.91 nM. Besides, the results for the koff in test [6] and in test [7] were 0.0003 s⁻¹ and 0.0002 s⁻¹, respectively. The molecule further came in with a Ka in [8] of 8.4e+09 M⁻¹. Further, the “% inhibition of enzyme in rapid protease inhibition assay” value in test [9] was 70%; in test [10], 60%; in test [11], 60%.
